In paper PMC6739812 (Protein Science : A Publication of the Protein Society, 2019):

Target: the molecule itself
Test: SEC-MALS

B1: InvCΔ79 (Salmonella T3SS ATPase InvC lacking the first 79 residues, with C-terminal Strep-tag) (domain or fragment, Salmonella typhimurium, UniProt P0A1B9 80-431, looked up)
chain: GRALSAWVGYSVLGAVLDPTGKIVERFTPEVAPISEERVIDVAPPSYASRVGVREPLITGVRAIDGLLTCGVGQRMGIFASAGCGKTMLMHMLIEQTEADVFVIGLIGERGREVTEFVDMLRASHKKEKCVLVFATSDFPSVDRCNAAQLATTVAEYFRDQGKRVVLFIDSMTRYARALRDVALASGERPARRGYPASVFDNLPRLLERPGATSEGSITAFYTVLLESEEEADPMADEIRSILDGHLYLSRKLAGQGHYPAIDVLKSVSRVFGQVTTPTHAEQASAVRKLMTRLEELQLFIDLGEYRPGENIDNDRAMQMRDSLKAWLCQPVAQYSSFDDTLSGMNAFADQN
stoichiometry N: 2
